Literature values in paper PMC12192639.

Key:
RecO (Escherichia coli) = RecO (Escherichia coli) (UniProt B1XB39)
[1] = molecular target: SSB C-terminal peptide last eight amino acids (Escherichia coli) (UniProt P0AGE0)
Chain of UniProt P0AGE0 (P0AGE0 whole entry, looked up): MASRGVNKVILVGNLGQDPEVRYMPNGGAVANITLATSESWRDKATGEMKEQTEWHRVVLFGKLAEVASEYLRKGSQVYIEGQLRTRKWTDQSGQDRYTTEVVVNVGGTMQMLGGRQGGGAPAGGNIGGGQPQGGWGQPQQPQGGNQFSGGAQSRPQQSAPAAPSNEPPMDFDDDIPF

| Substance | Kd (RecO (Escherichia coli)) | Kd [1] |
| --- | --- | --- |
| RecR (from UniProt C4ZUS6) | 126 nM | – |
| RecO (from UniProt B1XB39) | – | 150 nM |
